From patent US20220403029A1 (KYMAB, published 2022) come the findings set out here.

Changes are numbered by the printed parent chain. Like-named read-outs stand apart in the source and are kept apart here.

The target in test [1] is T1, mouse ICOS expressed on CHO-S cells (mouse, UniProt Q9WVS0 21-141).
T1 construct: full length mouse ICOS (NCBI NP_059508.2) was transfected; also called mICOS CHO; Mouse ICOS CHO
T1 sequence: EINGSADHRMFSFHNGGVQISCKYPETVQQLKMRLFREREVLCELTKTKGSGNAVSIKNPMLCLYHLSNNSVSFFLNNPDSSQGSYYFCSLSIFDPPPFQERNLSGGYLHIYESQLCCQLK
The test can be described thus: flow cytometry on CHO-S cells expressing mouse ICOS. For orientation: A flow cytometer gives signals particle by particle.

Test [2] has as its target T2, human ICOS expressed on cells (human, UniProt Q9Y6W8 21-199).
T2 construct: also called hICOS CHO; Human ICOS CHO
T2 sequence: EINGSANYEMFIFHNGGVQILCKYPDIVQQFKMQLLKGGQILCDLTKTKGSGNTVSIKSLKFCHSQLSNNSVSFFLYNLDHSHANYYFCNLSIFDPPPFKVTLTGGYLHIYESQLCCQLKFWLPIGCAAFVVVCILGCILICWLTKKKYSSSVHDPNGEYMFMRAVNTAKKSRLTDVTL
The test is described as follows: flow cytometry on CHO-S cells expressing human ICOS.

The target in test [3] is T1, mouse ICOS expressed on CHO-S cells. The test can be described thus: FACS screen on CHO-S cells expressing mouse ICOS. As for the experimental part: (§1) BCT supernatants and HEK293 expressed antibodies from Example 5 were tested for ability to bind to CHO-S cells expressing human or mouse ICOS.
(§2) CHO-S cells expressing human or mouse ICOS (see Example 2), were diluted in FACS buffer (PBS 1% BSA 0.1% sodium azide) and were distributed to a 96-well, V-bottom plate (Greiner) at a density of 1×10⁵ cells per well. Cells were washed with 150 μL PBS and centrifuged at 300 g for 3 minutes. For supernatant screening, supernatant was aspirated and 150 μL PBS added. This wash step was repeated. 30 μL BCT undiluted supernatant or 50 μL of reference antibody or control antibody diluted to 5 μg/ml in BCT media was added to the washed cells. Cells were incubated at 4° C. for 60 minutes. 150 μL FACS buffer was added and cells washed as described above. To detect antibody binding, 50 μL of goat anti-mouse APC (Jackson ImmunoResearch) diluted to 2 μg/ml in FACS buffer was added to cells. Cells were incubated 4° C. for 60 minutes. Cells were washed twice with 150 μL FACS buffer, centrifuging at 300 g for 3 minutes after each wash step and aspirating supernatant. Cells were fixed by addition of 25 μL 4% paraformaldehyde for 20 minutes at room temperature. Cells were washed once as above and resuspended in FACS buffer for analysis. APC signal intensity (geometric mean) was measured by flow cytometry using a BD FACS Array instrument. Data were plotted as geometric mean values without further calculation.

In test [4] the target is T2, human ICOS expressed on cells. The test is described as follows: FACS screen on CHO-S cells expressing human ICOS. The protocol: as §1, §2
The target is the same in test [5]. The test is described as follows: cell-based or functional assay.
Test [6] shares this target. The test can be described thus: cell-based or functional assay. This is another data set of the same source.
The target of test [7] is T3, human ICOS-mFc (Chimerigen) (human, UniProt Q9Y6W8 21-141).
T3 construct: bought; also called human ICOS receptor; not shown: mouse Fc of a bought reagent
T3 sequence (looked up): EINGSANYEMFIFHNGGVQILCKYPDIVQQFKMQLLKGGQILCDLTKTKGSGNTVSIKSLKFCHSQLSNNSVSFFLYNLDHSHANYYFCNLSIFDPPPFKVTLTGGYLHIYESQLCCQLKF
The test can be described thus: HTRF neutralisation of human B7-H2 binding to human ICOS-mFc, hamster IgG in the IgG1 series; SD 0.3 (n = 4). On the technique in general: TR-FRET usually uses a lanthanide donor and a delayed reading to cut background.

Test [8] has as its target T3, human ICOS-mFc (Chimerigen). The test can be described thus: HTRF neutralisation of human B7-H2 binding to human ICOS-mFc, hamster IgG in the IgG4.PE series; SD 3.8 (n = 4).
For test [9], the target named is T4, mouse ICOS-mFc (Chimerigen) (mouse, UniProt Q9WVS0 21-144).
T4 construct: bought; also called mouse ICOS receptor; not shown: mouse Fc of a bought reagent
T4 sequence (looked up): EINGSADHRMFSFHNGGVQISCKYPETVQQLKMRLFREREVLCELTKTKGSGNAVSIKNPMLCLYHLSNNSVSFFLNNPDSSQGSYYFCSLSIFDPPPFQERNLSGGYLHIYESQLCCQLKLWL
The test can be described thus: HTRF neutralisation of mouse B7-H2 binding to mouse ICOS-mFc, hamster IgG in the IgG4.PE series; SD 0.1 (n = 3).

Test [10] addresses T4, mouse ICOS-mFc (Chimerigen). The test can be described thus: HTRF neutralisation of mouse B7-H2 binding to mouse ICOS-mFc, hamster IgG in the IgG1 series; SD 0 (n = 3).
Test [11] shares this target. The test can be described thus: HTRF neutralisation of mouse B7-H2 binding to mouse ICOS-mFc, IgG1 series; same result as the 6th table, row 13, column 3 with more digits.
The target in test [12] is T2, human ICOS expressed on cells. The test can be described thus: cell-based or functional assay. This is another data set of the same source.

B1: CL-74570 (IgG1 format) (antibody, V domains shown)
VH: EVQLVESGGGVIRPGGSLRLSCAASGFTFDDYGMSWVRQAPGKGLEWVSGINWIGDNTDYADSVKGRFTISRDNAKNSLYLQMNSLRAEDTALYYCARDYFGSGSYYNVPF
VL: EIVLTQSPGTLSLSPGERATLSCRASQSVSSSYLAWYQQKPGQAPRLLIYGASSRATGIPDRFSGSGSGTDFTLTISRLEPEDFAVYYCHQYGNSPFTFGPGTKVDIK
notes: synthesised and expressed in human IgG1 format in HEK cells; tested as supernatant
As for B1, the “fold above average geomean of negative control” value in test [1] and in [2] was greater than 10 fold throughout.

B2: STIM005 as screened from BCT (mouse IgG1 constant region) (antibody, V domains shown)
VH: QVQLVQSGAEVKKPGASVKVSCKASGYTFNSYGIIWVRQAPGQGLEWMGWISVHNGNTNCAQKLQGRVTMTTDTSTSTAYMELRSLRTDDTAVYYCARAGYDILTDFSDAFDIWGHGTMVTVSS
VL: DIQMTQSPSSLSASVGDRVTITCRASQNINNFLNWYQQKEGKGPKLLIYAASSLQRGIPSTFSGSGSGTDFTLTISSLQPEDFATYICQQSYGIPWVGQGTKVEIK
notes: as m28
On to B2, for which the “fold above average geomean of negative control (HTK888)” value (“fold above average geomean … (HTK888)” for short) in [3] and in [4] was greater than 4 fold throughout.

B3: STIM009 as screened from BCT (mouse IgG1 constant region) (antibody, V domains shown)
VH: QVQLVESGGGLVKPGGSLRLSCAASGFTFSDYYMSWIRQAPGKGLEWVSYISSSGSTIYYADSVKGRFTISRDNAKNSLYLQINSLRAEDTAVYYCARDFYDILTDSPYFYYGVDVWGQGTTVTVSS
VL: not shown
notes: as m28
In the case of B3, the “fold above average geomean of hybrid control” value in test [3] and in test [4] was greater than 4 fold in each case.

B4: STIM003 human IgG1 (antibody)
heavy: not shown
light: EIVLTQSPGTLSLSPGERATLSCRASQSVSRSYLAWYQQKRGQAPRLLIYGASSRATGIPDRFSGDGSGTDFTLSISRLEPEDFAVYYCHQYDMSPFTFGPGTKVDIKRTVAAPSVFIFPPSDEQLKSGTASVVCLLNNFYPREAKVQWKVDNALQSGNSQESVTEQDSKDSTYSLSSTLTLSKADYEKHKVYACEVTHQGLSSPVTKSFNRGEC
B4: in test [5], the “EC50, primary NK cell ADCC on MJ cells, 2 h, Donor 1” value (from here on “EC50, primary NK cell ADCC … Donor 1”) turned out to be 0.00233 nM; the “EC50, primary NK cell ADCC on MJ cells, 2 h, Donor 2” value (“EC50, primary NK cell ADCC … Donor 2” for short) came out at 0.0358 nM; the “EC50, primary NK cell ADCC on MJ cells, 2 h, Donor 3” value turned out to be 0.101 nM. Also, in [6], the “EC50, primary NK cell ADCC on ICOS-transfected CCRF-CEM cells, 4 h, Donor 4” value was roughly 0.003 nM; the “EC50, primary NK cell ADCC on ICOS-transfected CCRF-CEM cells, 4 h, Donor 5” value came out at 0.000895 nM; the “EC50, primary NK cell ADCC on ICOS-transfected CCRF-CEM cells, 4 h, Donor 6” value came out at 0.00103 nM.

B5: STIM003 as screened from BCT (mouse IgG1 constant region) (antibody, V domains shown)
VH: EVQLVESGGGVVRPGGSLRLSCVASGVTFDDYGMSWVRQAPGKGLEWVSGINWNGGDTDYSDSVKGRFTISRDNAKNSLYLQMNSLRAEDTALYYCARDFYGSGSYYHVPFDYWGQGILVTVSS
VL: EIVLTQSPGTLSLSPGERATLSCRASQSVSRSYLAWYQQKRGQAPRLLIYGASSRATGIPDRFSGDGSGTDFTLSISRLEPEDFAVYYCHQYDMSPFTFGPGTKVDIK
notes: as m28
With B5, the “fold above average geomean … (HTK888)” value in test [3] and in test [4] was greater than 4 fold each time.

B6: STIM004 as screened from BCT (mouse IgG1 constant region) (antibody, V domains shown)
VH: B5 VH with V23A, V27L, A40V, G56D, D57N, S61A, F100Y, H108N, I118T
VL: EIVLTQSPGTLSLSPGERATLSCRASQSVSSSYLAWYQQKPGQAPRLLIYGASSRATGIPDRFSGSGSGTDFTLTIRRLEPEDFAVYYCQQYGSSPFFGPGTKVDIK
notes: as m28
Consider B6, for which the “fold above average geomean … (HTK888)” value in [3] and in [4] was greater than 4 fold in each case.

B7: Anti-ICOS antibody C398.4A (hamster IgG) (antibody, V domains shown)
VH: EVQLVESGGGLVKPAGSLTLSCVASGFTFSDYFMHWVRQAPGKGLEWVAVIDTKSFNYATYYSDLVKGRFTVSRDDSQGMVYLQMNNLRKEDTATYYCTATIAVPYYFDYWGQGTMVTVSS
VL: DIQMTQSPSSLPASLGDRVTINCQASQDISNYLSWYQQKPGKAPKLLIYYTNLLADGVPSRFSGSGSGRDYSFTISSLESEDIGSYYCQQYYNYRTFGPGTKLEIK
In general, IC50 refers to the concentration that inhibits the measured activity by half. Read a low IC50 as greater potency. Regarding B7, the IC50 was determined as 1.2 nM in test [7]; 2.8 nM in test [8]; 0.2 nM in test [9]; 0.1 nM in test [10]; 0.14 nM in test [11].

B8: CL-61091 (IgG1 format) (antibody, V domains shown)
VH: QVQLMQSGTEVKKPGASVKVSCKTSGYTFTTYGITWVRQAPGQGLEWMGWISAYSGDTDYAQKFQGRVTVTTDTSTNTAYMELRSLKSDDTAVYYCARSSGWPHHYGMDVWGQGTTVTVSS
VL: DIVMTQSPLSLPVTPGEPASISCRSSQSLLHSNGFNYFDWYLQKPGQSPQLLIFLVSNRASGVPDRFSGSGSGTDFTLKISRVEAEDVGIYYCMQALQTPLTFGGGTKVEIK
notes: as for B1
As to B8, the “fold above average geomean of negative control” value in test [1] and in [2] was greater than 10 fold throughout.

B9: STIM001 as screened from BCT (human V regions on mouse IgG1 constant region) (antibody, V domains shown)
VH: QVQVVQSGAEVKKPGASVKVSCKASGYTFSTFGITWVRQAPGQGLEWMGWISAYNGDTNYAQNLQGRVIMTTDTSTSTAYMELRSLRSDDTAVYYCARSSGHYYYYGMDVWGQGTTVTVSS
VL: B8 VL with G34E, F35Y, F38L, V56G, S81T, A96S
With B9, the “fold above average geomean of hybrid control” value in [3] and in test [4] was greater than 4 fold in each case.

B10: STIM001 human IgG1 (antibody)
heavy: not shown
light: DIVMTQSPLSLPVTPGEPASISCRSSQSLLHSNEYNYLDWYLQKPGQSPQLLIFLGSNRASGVPDRFSGSGSGTDFTLKITRVEAEDVGIYYCMQSLQTPLTFGGGTKVEIKRTVAAPSVFIFPPSDEQLKSGTASVVCLLNNFYPREAKVQWKVDNALQSGNSQESVTEQDSKDSTYSLSSTLTLSKADYEKHKVYACEVTHQGLSSPVTKSFNRGEC
Turning to B10, in test [5], the “EC50, primary NK cell ADCC … Donor 1” value stood at 0.121 nM; the “EC50, primary NK cell ADCC … Donor 2” value stood at 0.529 nM; the “EC50, primary NK cell ADCC on MJ cells, 2 h, Donor 3” value stood at 2.92 nM. Besides, in test [12], the “EC50, primary NK cell ADCC … Donor 1” value was found to be 0.121 nM and the “EC50, primary NK cell ADCC … Donor 2” value is 0.529 nM. Besides, in [6], the “EC50, primary NK cell ADCC on ICOS-transfected CCRF-CEM cells, 4 h, Donor 4” value is 0.00392 nM; the “EC50, primary NK cell ADCC on ICOS-transfected CCRF-CEM cells, 4 h, Donor 5” value is 0.00395 nM; the “EC50, primary NK cell ADCC on ICOS-transfected CCRF-CEM cells, 4 h, Donor 6” value was found to be 0.00375 nM.

B11: STIM002-B as screened from BCT (mouse IgG1 constant region) (antibody, V domains shown)
VH: QVQLVQSGGEVKKPGASVKVSCKASGYTFTSYGFSWVRQAPGQGLEWMGWISAYNGNTNYAQKLQGRVTMTTDTSTSTAYMELRSLRSDDTAVYYCARSTYFYGSGTLYGMDVWGQGTTVTVSS
VL: DIVMTQSPLSLPVTPGEPASISCRSSQSLLHSDGYNCLDWYLQKPGQSPQLLIYLGSTRASGFPDRFSGSGSGTDFTLKISRVEAEDVGVYYCMQALQTPCSFGQGTKLEIK
notes: as m28
On to B11, for which the “fold above average geomean of hybrid control” value in test [3] and in test [4] was greater than 4 fold throughout.
